{
  "source": "patent US20220348688A1",
  "about": "(PROMAB BIOTECHNOLOGIES, published 2022)",
  "key": {"CD3 epsilon chain (CD3e) [1]": {"biological_target": "T1, CD3 epsilon chain (CD3e) (human, UniProt P07766 23-207)", "T1 construct": "whole, on cells; also called CD3 antigen", "T1 sequence (P07766 23-207)": "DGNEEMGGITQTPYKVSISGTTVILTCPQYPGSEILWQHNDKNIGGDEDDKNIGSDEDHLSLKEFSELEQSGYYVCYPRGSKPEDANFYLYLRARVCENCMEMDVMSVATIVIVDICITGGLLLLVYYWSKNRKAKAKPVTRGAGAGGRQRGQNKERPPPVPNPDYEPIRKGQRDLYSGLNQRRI", "experiment": "FACS on CD3-positive T cells", "from_the_text": "The allophycocyanin (APC)-labeled anti-CD3 (eBioscience, San Diego, Calif.) antibody was used for FACS analysis using FACSCalibur (BD Biosciences).\nCD3-positive T cells were used for testing binding to CD3."}, "CD3 epsilon chain (CD3e) [2]": {"biological_target": "T1, CD3 epsilon chain (CD3e)", "experiment": "FACS"}},
  "data": [
    {"binder": "PLAP h4-CD3e bispecific antibody (FIG. 1A structure) (bispecific antibody, Two PLAP Fab arms and one CD3e crossover Fab; knob-into-hole human IgG Fc with P329G, L234A, L235A; also called PLAP h4-CD3 antibody; PLAP h4-Cd3 antibody) light: DIQMTQSPSSLSASVGDRVTITCRASENIYSYVAWYQQKPGKAPKLLIYNAKSLASGVPSRFSGSGSGTDFTLTISSLQPEDFATYYCQHHYVSPWTFGGGTKLEIKRTVAAPSVFIFPPSDEQLKSGTASVVCLLNNFYPREAKVQWKVDNALQSGNSQESVTEQDSKDSTYSLSSTLTLSKADYEKHKVYACEVTHQGLSSPVTKSFNRGEC QAVVTQEPSLTVSPGGTVTLTCGSSTGAVTTSNYANWVQEKPGQAFRGLIGGTNKRAPGTPARFSGSLLGGKAALTLSGAQPEDEAEYYCALWYSNLWVFGGGTKLTVLSSASTKGPSVFPLAPSSKSTSGGTAALGCLVKDYFPEPVTVSWNSGALTSGVHTFPAVLQSSGLYSLSSVVTVPSSSLGTQTYICNVNHKPSNTKVDKKVEPKSC heavy 1: not shown heavy 2: QVQLQESGPGLVKPSETLSLTCTVSGGSITSYGVSWIRQPPGKGLEWIGVIWEDGSTNYHSALISRVTISVDTSKNQFSLKLSSVTAADTAVYYCARPHYGSSYVGAMEYWGAGTTVTVSSTKGPSVFPLAPSSKSTSGGTAALGCLVKDYFPEPVTVSWNSGALTSGVHTFPAVLQSSGLYSLSSVVTVPSSSLGTQTYICNVNHKPSNTKVDKKVEPKSCDKTHTCPPCPAPEAAGGPSVFLFPPKPKDTLMISRTPEVTCVVVDVSHEDPEVKFNWYVDGVEVHNAKTKPREEQYNSTYRVVSVLTVLHQDWLNGKEYKCKVSNKALGAPIEKTISKAKGQPREPQVCTLPPSRDELTKNQVSLSCAVKGFYPSDIAVEWESNGQPENNYKTTPPVLDSDGSFFLVSKLTVDKSRWQQGNVFSCSVMHEALHNHYTQKSLSLSPGK", "values": [
      {"measurement": "binding result", "setting": "CD3 epsilon chain (CD3e) [1]", "value": "binds"}
    ]},
    {"binder": "PLAP h4-CD3e bivalent antibody (PBM0015), FIG. 1B structure (bispecific antibody, Two PLAP Fab arms; the CD3 scFv is attached to the C-terminal end of CH3 of the knob chain; also called bivalent PLAP h4-CD3 Ab; bivalent humanized PLAPh4-CD3 antibody) light: DIQMTQSPSSLSASVGDRVTITCRASENIYSYVAWYQQKPGKAPKLLIYNAKSLASGVPSRFSGSGSGTDFTLTISSLQPEDFATYYCQHHYVSPWTFGGGTKLEIKRTVAAPSVFIFPPSDEQLKSGTASVVCLLNNFYPREAKVQWKVDNALQSGNSQESVTEQDSKDSTYSLSSTLTLSKADYEKHKVYACEVTHQGLSSPVTKSFNRGEC heavy 1: not shown heavy 2: QVQLQESGPGLVKPSETLSLTCTVSGGSITSYGVSWIRQPPGKGLEWIGVIWEDGSTNYHSALISRVTISVDTSKNQFSLKLSSVTAADTAVYYCARPHYGSSYVGAMEYWGAGTTVTVSSTKGPSVFPLAPSSKSTSGGTAALGCLVKDYFPEPVTVSWNSGALTSGVHTFPAVLQSSGLYSLSSVVTVPSSSLGTQTYICNVNHKPSNTKVDKKVEPKSCDKTHTCPPCPAPEAAGGPSVFLFPPKPKDTLMISRTPEVTCVVVDVSHEDPEVKFNWYVDGVEVHNAKTKPREEQYNSTYRVVSVLTVLHQDWLNGKEYKCKVSNKALGAPIEKTISKAKGQPREPQVCTLPPSRDELTKNQVSLSCAVKGFYPSDIAVEWESNGQPENNYKTTPPVLDSDGSFFLVSKLTVDKSRWQQGNVFSCSVMHEALHNHYTQKSLSLSPGK", "values": [
      {"measurement": "binding result", "setting": "CD3 epsilon chain (CD3e) [2]", "value": "binds"}
    ]}
  ]
}
